B1: A2A-19: A2AR variant; VH CDR1-3 SEQ ID NO 24/113/202 (antibody, V domains shown)
VH: EVQLVESGGGLVKPGGSLRLSCAASGFTFSGYAMNWVRQAPGKGLEWVSTISGSGASTYYADSVKGRFTISRDNSKNTLYLQMNSLRAEDTAVYYCAAARGYKRWRLGRRYDYWGQGTLVTVSS
VL: DIQMTQSPSSLSASVGDRVTITCRASQSISDYLNWYQQKPGKAPKLLIYTASTLQSGVPSRFSGSGSGTDFTLTISSLQPEDFATYYCEQSYSTPWTFGGGTKLEIK
B2: A2A-26: A2AR variant; VH CDR1-3 SEQ ID NO 31/120/209 (antibody, V domains shown)
VH: EVQLLESGGGLVQPGGSLRLSCAASGFTFSTYAMGWVRQAPGKGLEWVSGISGSAGSTYYADSVKGRFTISRDNSKNTLYLQMNSLRAEDTAVYYCAAARGHWRWRLGRRYDYWGQGTLVTVSS
VL: DIQMTQSPSSLSASVGDRVTITCRASQTISRYLNWYQQKPGKAPKLLIYSASTLQSGVPSRFSGSGSGTDFTLTISSLQPEDFATYYCQQSYSTPHTFGGGTKVEIK
B3: A2A-27: A2AR variant; VH CDR1-3 SEQ ID NO 32/121/210 (antibody, V domains shown)
VH: EVQLVESGGGLVKPGGSLRLSCAASGFTFSSYAMAWVRQAPGKGLEWVSAISGSGGSTYFADSVKGRFTISRDNSKNTLYLQMNSLRAEDTAVYYCAAARGYWRWRLWRRYDYWGQGTLVTVSS
VL: DIQMTQSPSSLSASVGDRVTITCRASQSIGSYLNWYQQKPGKAPKLLIYGASNLQSGVPSRFSGSGSGTDFTLTISSLQPEDFATYYCQQGYSAPRTFGGGTKLEIK
B4: A2A-53: A2AR variant; VH CDR1-3 SEQ ID NO 58/147/236 (antibody, V domains shown)
VH: EVQLVESGGGLVKPGGSLRLSCAASGFNIIDDYMHWVRQAPGKGLEWVGMITDTGEPTDADSVKGRFTISRDNSKNTLYLQMNSLRAEDTAVYYCVYDYIYAMDYWGQGTLVTVSS
VL: DIQMTQSPSSLSASVGDRVTITCKASQNMGSNVAWYQQKPGKAPKLLIYSASHRSSGVPSRFSGSGSGTDFTLTISSLQPEDFATYYCQQWNYPRITFGQGTKLEIK
B5: A2A-31: A2AR variant; VH CDR1-3 SEQ ID NO 36/125/214 (antibody, V domains shown)
VH: EVQLVESGGGLVKPGGSLRLSCAASGYLFTDYNMNWVRQAPGKGLEWVGWIYPGTGNTYNDSVKGRFTISRDNSKNTLYLQMNSLRAEDTAVYYCTALYYGSSWERYFDVWGQGTLVTVSS
VL: DIQMTQSPSSLSASVGDRVTITCRASQSISDYLNWYQQKPGKAPKLLIYGASPRESGVPSRFSGSGSGTDFTLTISSLQPEDFATYYCQQDNIWPYTFGQGTKLEIK
B6: A2A-17: A2AR variant; VH CDR1-3 SEQ ID NO 22/111/200 (antibody, V domains shown)
VH: EVQLVESGGGLVKPGGSLRLSCAASGFNIGNTYMHWFRQAPGKGLEWVGVINPNYGTTRYNDSVKGRFTISRDNSKNTLYLQMNSLRAEDTAVYYCARDYGSSSFDYWGQGTLVTVSS
VL: DIQMTQSPSSLSASVGDRVTITCKASQSVRNDVVWYQQKPGKAPKLLIYRGNTLRPGVPSRFSGSGSGTDFTLTISSLQPEDFATYYCQQYYGIPLTFGQGTKLEIK
B7: A2A-24: A2AR variant; VH CDR1-3 SEQ ID NO 29/118/207 (antibody, V domains shown)
VH: EVQLVESGGGLVKPGGSLRLSCAASGFNIGNTYMHWFRQAPGKGLEWVGVINPNYGTTRYNDSVKGRFTISRDNSKNTLYLQMNSLRAEDTAVYYCARDYGSSSFDYWGQGTLVTVSS
VL: DIQMTQSPSSLSASVGDRVTITCKASQSVRNDVVWYQQKPGKAPKLLIYRGNTLRPGVPSRFSGSGSGTDFTLTISSLQPEDFATYYCQQYYGIPLTFGQGTKLEIK
B8: A2A-51: A2AR variant; VH CDR1-3 SEQ ID NO 56/145/234 (antibody, V domains shown)
VH: EVQLVESGGGLVKPGGSLRLSCAASGYTFNDYYINWVRQAPGKGLEWVGDINPNNGANIYNDSVKGRFTISRDNSKNTLYLQMNSLRAEDTAVYYCARNYGSSYYALDYWGQGTLVTVSS
VL: DIQMTQSPSSLSASVGDRVTITCSASSSLSYMHWYQQKPGKAPKLLIYGASPRESGVPSRFSGSGSGTDFTLTISSLQPEDFATYYCRQMSSYPPTFGQGTKLEIK

Assays:
A2AR [1] = target: T1, A2AR (Homo sapiens, UniProt P29274); assay: A2AR cell functional cAMP assays (allosteric and antagonistic); conditions: NECA titration, IgG titration (NECA 0.5 uM), IgG titration (NECA 10 uM)
Description: Allosteric and Antagonistic cAMP Assays were Performed Using A2A Cell Lines

A2b = target: T2, A2b (Homo sapiens, UniProt P29275); assay: A2b functional antagonistic cAMP assay (CHO-K1 cells); assay type: cell-based; conditions: IgG 3× titration from 1000 nM, NECA 5 nM
T2 construct: expressed in transfected cells; host or cells: CHO-K1
T2 sequence (P29275 1-332): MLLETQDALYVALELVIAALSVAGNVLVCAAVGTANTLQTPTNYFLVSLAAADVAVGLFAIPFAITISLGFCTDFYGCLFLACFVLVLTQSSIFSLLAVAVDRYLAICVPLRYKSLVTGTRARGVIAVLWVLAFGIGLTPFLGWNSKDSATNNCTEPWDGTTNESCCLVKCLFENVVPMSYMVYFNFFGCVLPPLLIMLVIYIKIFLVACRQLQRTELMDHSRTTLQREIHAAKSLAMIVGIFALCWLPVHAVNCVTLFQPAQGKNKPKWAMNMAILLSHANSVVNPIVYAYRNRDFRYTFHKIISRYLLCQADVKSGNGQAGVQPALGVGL
Description: FIG. 46 depicts the functional cAMP assay performed on selected A2b antibodies. CHO-K1 cells were incubated with an A2b antibody. Next, the cells were stimulated using NECA. Activation of A2b was monitored based on 3′-5′-cyclic adenosine monophosphate (cAMP) production in the cell lines.
First, cells were pre-incubated with A2A-17, A2A-19, A2A-26, A2A-27, A2A-35, A2A-36, and A2A-83 at a 3× titration starting at 100 nM. […] The results are depicted in FIGS. 47B-47C.
An antagonistic cAMP assay at high levels of IgC and low ligand levels was performed. Cells were pre-incubated with A2A-17, A2A-19, A2A-26, A2A-27, A2A-35, A2A-36, A2A-83, and A2A-72 at a 3× titration starting at 1000 nM. […] The results are depicted in FIG. 47D. […] Properties of A2b are depicted in Table 23.

A2AR [2] = target: T1, A2AR; assay: T cell activation assay (PBMCs, NECA, anti-CD3ε/CD28 beads, IFN-γ release); assay type: cell-based; parameters: endogenous in cells; host or cells: PBMCs; conditions: for T cell activation: NECA 1 μM, IFN-γ release
Description: The cells were then activated by magnetic beads coating with anti-CD3ε/CD28 antibodies. Three days after incubation, the supernatant was collected for detecting IFN-γ release and evaluating T cell activation. ZM-241385 is potent and used as a selective small molecule A2A antagonist control.
A primary T-cell activation assay was performed as described above. Data is seen in FIG. 33D and Table 21.

[3] = tested on: human colon carcinoma (Colo205); assay: In vivo colon carcinoma model, tumor volume; conditions: mice with Colo205, tumor volume over 30 days
Description: Mice with human colon carcinoma (Colo205) were divided into 4 groups. Group 1 was the isotype control, Group 2 mice were treated with Anti-PD1, Group 3 mice were treated with variant A2A-77 and Group 4 mice were treated with variant A2A-81. Tumor volume is measured over 30 days. Results are depicted in FIGS. 34A-34D.
Additional studies were performed with mice treated with 10 mg/kg variant A2A-51 (Group 5), A2A-28 (Group 6), Ab7/PD1TAO15 (Group 7), and AZD4635 (Group 8). Mice were also treated with 20 mg/kg according to the schedule in FIG. 34E. Data is seen in FIGS. 34F-34K.

T1 sequence (P29274 whole entry): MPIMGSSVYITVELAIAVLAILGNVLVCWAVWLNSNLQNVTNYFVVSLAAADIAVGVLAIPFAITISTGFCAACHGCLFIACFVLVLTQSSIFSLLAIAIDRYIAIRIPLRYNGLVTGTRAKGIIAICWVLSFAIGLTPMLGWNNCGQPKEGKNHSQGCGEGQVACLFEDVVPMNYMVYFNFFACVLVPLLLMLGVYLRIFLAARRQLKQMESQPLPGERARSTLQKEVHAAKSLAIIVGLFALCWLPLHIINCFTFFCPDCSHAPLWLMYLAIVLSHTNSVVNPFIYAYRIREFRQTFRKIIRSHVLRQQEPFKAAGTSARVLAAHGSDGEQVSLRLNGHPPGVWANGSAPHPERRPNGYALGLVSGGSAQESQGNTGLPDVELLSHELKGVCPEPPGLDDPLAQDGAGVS

Row | Molecule | function in cAMP assays (A2AR [1]) | T cell activation (A2AR [2]) | further results
1 | B1 | improved function | – | –
2 | B2 | improved function | – | –
3 | B3 | improved function | – | A2a/A2b antagonist properties (A2b): A2a antagonist that cross links with A2b, while also being an A2b antagonist
4 | B4 | – | T cell activation was observed | –
5 | B5 | – | T cell activation was observed | –
6 | B6 | improved function | – | –
7 | B7 | improved function | – | –
8 | B8 | – | T cell activation was observed | tumor size / tumor volume [3]: ability to reduce tumor volume; T cell activation with more (high) NECA (A2AR [2]; high NECA): still works well
